Biological target: CD33 (UniProt P20138 18-364, limits assumed)
Experiment: cell-based or functional assay

Chain of CD33 (P20138 18-364 limits assumed): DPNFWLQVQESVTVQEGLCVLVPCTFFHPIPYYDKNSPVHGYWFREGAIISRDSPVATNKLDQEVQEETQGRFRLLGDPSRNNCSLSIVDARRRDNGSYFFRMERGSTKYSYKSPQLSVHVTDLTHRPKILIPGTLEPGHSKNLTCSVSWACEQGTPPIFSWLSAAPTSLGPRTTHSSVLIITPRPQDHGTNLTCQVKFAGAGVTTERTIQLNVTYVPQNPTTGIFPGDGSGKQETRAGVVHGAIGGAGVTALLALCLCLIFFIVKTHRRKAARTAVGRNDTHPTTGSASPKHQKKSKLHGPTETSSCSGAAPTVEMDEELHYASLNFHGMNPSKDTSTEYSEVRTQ

proliferation of CD4+ and CD8+ T cells: > 2 fold
B1: AMV564 (bispecific antibody)
chain: DIQMTQSPSSLSASVGDRVTITCRSSTGAVTTSNYANWVQQKPGKAPKALIGGTNKRAPGVPSRFSGSLIGDKATLTISSLQPEDFATYYCALWYSNLWVFGQGTKVEIKGGSGGSQVQLVQSGAEVKKPGASVKVSCKASGYTFTSYDINWVRQAPGQGLEWMGWMNPNSGNTGFAQKFQGRVTMTRDTSTSTVYMELSSLRSEDTAVYYCARDRANTDYSLGMDVWGQGTLVTVSSGGSGQSVLTQPPSASGTPGQRVTISCSGSRSNIGSNTVNWYQQLPGTAPKLLIYGNNQRPSGVPDRFSGSKSGTSASLAISGLQSEDEADYYCATWDDSLIGWVFGGGTKLTVLGGSGGSEVQLVESGGGLVQPGGSLRLSCAASGFTFSTYAMNWVRQAPGKGLEWVGRIRSKYNNYATYYADSVKDRFTISRDDSKNSLYLQMNSLKTEDTAVYYCARHGNFGNSYVSYFAYWGQGTLVTVSS
